Measurements taken from publication PMC7544203.

Assays:
YTHDC1 YTH domain [1] = target: T1, YTHDC1 YTH domain (Homo sapiens, UniProt Q96MU7 345-509); assay: ITC
YTHDC1 YTH domain [2] = target: T1, YTHDC1 YTH domain; assay: X-ray crystallography

Row | Binder | binding result (YTHDC1 YTH domain [1]) | other results
1 | CGCGGACTCTG (ssDNA, none) [unmodified 11-nt ssDNA] | no binding | 
2 | CGCGGACUCUG (ssRNA, none) [unmodified 11-nt ssRNA] | no binding | 
3 | CGCGGACTCTG (ssDNA, N6-methyladenine at A6) [11-nt N6mA ssDNA] |  | Kd (YTHDC1 YTH domain [1]): 10 nM
4 | CGCGGACTTC (ssDNA, N6-methyladenine at A6) [10-nt N6mA ssDNA] |  | binding result (YTHDC1 YTH domain [2]): binds
